Measured values reported in publication PMC7948458.

Tests used:
Assay in all cases: EMSA
OGG1 C146S C146S = OGG1 C146S C146S (UniProt O15527); conditions: EMSA: 0.1 nM DNA, 0.5-4000 nM OGG1, 25 mM Tris-HCl pH 7.6, 175 nM NaCl (sic), 1 mM EDTA, 1 mM DTT, 300 ug/ml BSA, 12% glycerol, 15 min, 4 C
OGG1 C140S C140S = OGG1 C140S C140S (UniProt O15527); conditions: 8-oxoguanine at position 16 of strand 1, opposite C; EMSA: 0.1 nM DNA, 0.5-4000 nM OGG1, 25 mM Tris-HCl pH 7.6, 175 nM NaCl (sic), 1 mM EDTA, 1 mM DTT, 300 ug/ml BSA, 12% glycerol, 15 min, 4 C
OGG1 WT = OGG1 WT (UniProt O15527); conditions: EMSA: 0.1 nM DNA, 0.5-4000 nM OGG1, 25 mM Tris-HCl pH 7.6, 175 nM NaCl (sic), 1 mM EDTA, 1 mM DTT, 300 ug/ml BSA, 12% glycerol, 15 min, 4 C
OGG1 C241S C241S = OGG1 C241S C241S (UniProt O15527); conditions: EMSA: 0.1 nM DNA, 0.5-4000 nM OGG1, 25 mM Tris-HCl pH 7.6, 175 nM NaCl (sic), 1 mM EDTA, 1 mM DTT, 300 ug/ml BSA, 12% glycerol, 15 min, 4 C
OGG1 C28S C28S = OGG1 C28S C28S (UniProt O15527); conditions: EMSA: 0.1 nM DNA, 0.5-4000 nM OGG1, 25 mM Tris-HCl pH 7.6, 175 nM NaCl (sic), 1 mM EDTA, 1 mM DTT, 300 ug/ml BSA, 12% glycerol, 15 min, 4 C
OGG1 C255S C255S = OGG1 C255S C255S (UniProt O15527); conditions: 8-oxoguanine at position 16 of strand 1, opposite C; EMSA: 0.1 nM DNA, 0.5-4000 nM OGG1, 25 mM Tris-HCl pH 7.6, 175 nM NaCl (sic), 1 mM EDTA, 1 mM DTT, 300 ug/ml BSA, 12% glycerol, 15 min, 4 C
OGG1 C253S C253S = OGG1 C253S C253S (UniProt O15527); conditions: 8-oxoguanine at position 16 of strand 1, opposite C; EMSA: 0.1 nM DNA, 0.5-4000 nM OGG1, 25 mM Tris-HCl pH 7.6, 175 nM NaCl (sic), 1 mM EDTA, 1 mM DTT, 300 ug/ml BSA, 12% glycerol, 15 min, 4 C
[1] = 8-oxoguanine at position 16 of strand 1, opposite C
[2] = tetrahydrofuran abasic analog at position 16 of strand 1 (written N), opposite base Y is C or A, not stated for this assay (written N)

Sequence of OGG1 WT (O15527 whole entry): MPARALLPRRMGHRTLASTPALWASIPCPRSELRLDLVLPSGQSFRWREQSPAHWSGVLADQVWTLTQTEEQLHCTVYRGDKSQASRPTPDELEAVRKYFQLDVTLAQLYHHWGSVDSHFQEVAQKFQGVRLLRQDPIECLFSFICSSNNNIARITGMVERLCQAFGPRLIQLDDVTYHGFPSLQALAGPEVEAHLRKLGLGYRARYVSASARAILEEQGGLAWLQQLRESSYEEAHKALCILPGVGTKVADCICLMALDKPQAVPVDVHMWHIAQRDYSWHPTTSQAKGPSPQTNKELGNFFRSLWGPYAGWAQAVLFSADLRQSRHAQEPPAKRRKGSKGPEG
Sequence of OGG1 C146S C146S (O15527 whole entry C146S): as the sequence (O15527 whole entry) above, with C146S counted along it
Sequence of OGG1 C241S C241S (O15527 whole entry C241S): as the sequence (O15527 whole entry) above, with C241S counted along it
Sequence of OGG1 C28S C28S (O15527 whole entry C28S): as the sequence (O15527 whole entry) above, with C28S counted along it
Sequence of OGG1 C253S C253S (O15527 whole entry C253S): as the sequence (O15527 whole entry) above, with C253S counted along it
Sequence of OGG1 C140S C140S (O15527 whole entry C140S): as the sequence (O15527 whole entry) above, with C140S counted along it
Sequence of OGG1 C255S C255S (O15527 whole entry C255S): as the sequence (O15527 whole entry) above, with C255S counted along it

CGTTCAACGTGCACTGACAGCACGTCCCAT (double strand) [8-oxoG:C 30-mer duplex]
binding signal (fold increase in Kd vs WT) (OGG1 C146S C146S; [1]): 10
binding signal (fold increase in Kd vs WT) (OGG1 C140S C140S): 10
Kd (OGG1 WT; [1]): 1.9 nM
binding signal (fold increase in Kd vs WT) (OGG1 C241S C241S; [1]): 10
binding signal (fold increase in Kd vs WT) (OGG1 C28S C28S; [1]): 10
binding signal (fold increase in Kd vs WT) (OGG1 C255S C255S): 10
binding signal (fold increase in Kd vs WT) (OGG1 C253S C253S): 10

CGTTCAACGTGCACTNACAGCACGTCCCAT (double strand) [THF 30-mer duplex]
Kd (OGG1 C146S C146S; [2]): 9.9 nM
Kd (OGG1 WT; [2]): 0.6 nM
Kd (OGG1 C241S C241S; [2]): 3.5 nM
Kd (OGG1 C28S C28S; [2]): 2.2 nM

CGTTCAACGTGCACTGACAGCACGTCCCAT / ATGGGACGTGCTGTAAGTGCACGTTGAACG [8-oxoG:A 30-mer duplex]
Kd (OGG1 WT; 8-oxoguanine at position 16 of strand 1, opposite A): 201 nM
